The values that follow come from publication doi:10.1101/2020.04.28.065904.

In this experiment the target is aa defensin C (mature Aedes albopictus defensin C peptide) (Aedes albopictus). The experiment can be described thus: ELISA. (In general: ELISA stands for enzyme-linked immunosorbent assay.)

Turning to “JEV E protein (recombinant) (natural protein)”, the absorbance worked out at 0.95.

The substance “JEV ED III protein (ED III domain of the E protein, recombinant) (domain or fragment)” displayed an absorbance of 1.17.
